Measured values published in US20240409645A1 (DUALYX, published 2024).

T1: human interleukin-2 receptor α-chain (IL-2Rα; CD25), recombinant protein (human, UniProt P01589 22-240, limits assumed)
T1 construct: also called huIL2R-a; hIL-2RA
T1 sequence: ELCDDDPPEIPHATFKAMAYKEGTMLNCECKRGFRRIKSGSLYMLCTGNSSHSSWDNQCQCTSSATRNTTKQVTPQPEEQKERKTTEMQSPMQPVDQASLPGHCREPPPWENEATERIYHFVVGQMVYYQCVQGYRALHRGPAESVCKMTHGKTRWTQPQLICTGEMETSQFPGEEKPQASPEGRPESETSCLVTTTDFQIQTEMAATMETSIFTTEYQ

T2: cynomolgus monkey IL-2Rα/CD25 subunit (cynomolgus monkey, UniProt H6WS54 22-213)
T2 construct: also called Cyno IL-2R subunit
T2 sequence: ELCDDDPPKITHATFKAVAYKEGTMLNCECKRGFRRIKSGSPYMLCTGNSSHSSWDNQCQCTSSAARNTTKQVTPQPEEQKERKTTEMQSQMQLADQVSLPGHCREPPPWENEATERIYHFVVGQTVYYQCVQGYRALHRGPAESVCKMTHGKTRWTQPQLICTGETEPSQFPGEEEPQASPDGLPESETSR


Columns and labels:
[1] = molecular target: T1, human interleukin-2 receptor α-chain …; assay: ELISA, bivalent VHH-hFc
Experimental: (§1) Monospecific monovalent and bivalent IL-2Rα-, IL-2Rβ- and IL-2Rγ-specific antibodies that were selected on human IL-2R subunits, were evaluated for their cross-reactivity in an ELISA. Human and cynomolgus monkey receptor subunits (Acrobiosystems, KactusBiosystems) were coated at 1 μg/mL in PBS (pH 7.4) in a Maxisorp plate (Nunc) and incubated overnight at 4° C. The plates were further washed with PBS-Tween pH 7.4 and incubated with 1% cascin/PBS-Tween blocking solution for 1 hour shaking at 400 rpm. Subsequently, the plate was washed three times with PBS-Tween pH 7.4, after which the test antibodies diluted in 0.1% casein/PBS-Tween were added to the plate and incubated for 1 hour. The plate was again washed three times, after which goat anti-human IgG Fc (HRP) detection antibody (abcam) was added to the plate and incubated for 30 min. The colouring reaction was performed with TMB (Sigma-Aldrich) and stopped with 0.5N H₂SO₄.
(§2) Absorbance was measured at 450 nm with the reference wavelength of 620 nm using spectrophotometer. Final analysis and graphic output were performed with GraphPad Prism version 8 (GraphPad Software). The dose-response binding curves were fit to a nonlinear regression model (log (agonist) vs. response with a variable slope (four parameters)).

[2] = molecular target: T2, cynomolgus monkey IL-2Rα/CD25 subunit; assay: ELISA, bivalent VHH-hFc
Experimental: as §1, §2

[3] = molecular target: T2, cynomolgus monkey IL-2Rα/CD25 subunit; assay: ELISA, bivalent; EC50 cyno vs human subunit
Experimental: as §1, §2

[4] = molecular target: T1, human interleukin-2 receptor α-chain …; assay: P.E. off-rate SPR
Procedure, shortened: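 CM5 chip, amine coupling (acetate buffer), ~2500 RU receptor. VHH P.E. flowed at 30 uL/min; off-rate read over 120 s.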

[5] = molecular target: T1, human interleukin-2 receptor α-chain …; assay: P.E. binding ELISA
Procedure, shortened: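 Human or mouse IL-2Rα, IL-2Rβ or IL-2Rγ protein coated directly overnight at 4° C, blocked with 4% Marvel/PBS for 1 hour.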

Row | EC50 [1] | EC50 [2] | Fold change [3] | koff [4] | OD450 nm [5] | Binder
1 | – | – | – | 0.00042 s⁻¹ | 2.62 OD450 nm | 5-MP01F05 VHH (periplasmic extract) (VHH, soluble VHH in periplasmic extract) VHH: EVQLVESGGGLVQAGGSLRLSCAASIRAFTTWSMAWFRQAPGKEREYVARINVSGSVTYYADFVKGRFTISRDNAKKTMYLEMNNLKPEDTALYYCAADRTGVGTNDYNYWGQGTQVTVSS
2 | 0.072 nM | 0.067 nM | 0.9 fold | – | – | 7-MP01G08 VHH-hFc, monospecific bivalent (Fc fusion, IgG1 Fc LALA-PG; also called 07-MP01G08; not shown: human IgG1 CH2 and CH3 domains (Fc)) EVQLVESGGGLVQAGGSLRLSCAASGRAFSMYNMGWFRQAPGKEREFVAATGWSGANTPYADSVKGRFTISRDNTQNTVYLQMNSLKPEDTATYYCAADSIRLRSDVTRIPLEYDYWGQGTQVTVSS
3 | 0.057 nM | 0.106 nM | 1.9 fold | – | – | 3-MP01E03 VHH-hFc, monospecific bivalent (Fc fusion, IgG1 Fc LALA-PG; not shown: human IgG1 CH2 and CH3 domains (Fc)) QVQLVESGGGLVQAGGSLRLSCTASGRTLSSYSMAWFRQAADKGREFVTAISSSGVVTHVLDSVKGRFTISRDNAKNTVYLQMNSLQPEDTALYFCAGTASSYSTYEANYNYWGQGTLVTVSS
4 | – | – | – | 0.000799 s⁻¹ | 2.54 OD450 nm | 3-MP01E03 VHH (periplasmic extract) (VHH, soluble VHH in periplasmic extract) VHH: QVQLVESGGGLVQAGGSLRLSCTASGRTLSSYSMAWFRQAADKGREFVTAISSSGVVTHVLDSVKGRFTISRDNAKNTVYLQMNSLQPEDTALYFCAGTASSYSTYEANYNYWGQGTLVTVSS
5 | – | – | – | 0.000383 s⁻¹ | 2.53 OD450 nm | 8-MP01C12 VHH (periplasmic extract) (VHH, soluble VHH in periplasmic extract) VHH: QVQLVESGGGLVQPGGSLRLSCATSGFTFSNNFMSWVRQAPGKGLEFVSTISYGGESTTYAEAVKGRFTISRDNAKNTLYLQMNNLKPEDTAIYYCAKATSYTSIRGAPRGQGTQVTVSS
6 | 0.049 nM | 0.051 nM | 1 fold | – | – | 13-MP05E12 VHH-hFc, monospecific bivalent (Fc fusion, IgG1 Fc LALA-PG; not shown: human IgG1 CH2 and CH3 domains (Fc)) QVQLQESGGGLVQAGDSLRLSCAASGFNFGWHAMGWFRQAPGKEREFVATITWTGRDTYYADSVRGRFTISKDNAKDTLFLQMNSLRPDDTGVYYCAKARERATWAYSEDDCDYWGQGTQVTVSS
7 | – | – | – | 0.0229 s⁻¹ | 1.71 OD450 nm | 1-MP01H01 VHH (periplasmic extract) (VHH, soluble VHH in periplasmic extract) VHH: EVQLVESGGGLVQAGGSLRLSCAASGRTFRTHNMGWFRRAPGKEREFVAAISWNVDNTLYADSVKGRFTISRDNGRNMVYLQMNSLKPEDTAVYYCAADNIPLSSDVAATATEYDYWGQGTQVTVSS
8 | – | – | – | 0.000639 s⁻¹ | 2.46 OD450 nm | 10-MP05F03 VHH (periplasmic extract) (VHH, soluble VHH in periplasmic extract) VHH: QVQLVESGGGLVQAGGSLRLSCAASGIPFDNYAMGWFRQAPGKEREFVAARDLEGIITRYGDSVKGRFTISRGNAKNTVFLQMNSLKPEDTAVYYCAARDGGVVAGSRSSAQYNYWGQGTQVTVSS
9 | 0.093 nM | 0.11 nM | 1.2 fold | – | – | 11-MP05H04 VHH-hFc, monospecific bivalent (Fc fusion, IgG1 Fc LALA-PG; not shown: human IgG1 CH2 and CH3 domains (Fc)) QLQLVESGGGLVQAGGSLRLSCAASGLTFEGYAIGWFRQAPGKEREGVSYITGSDGTTYYINSVKGRFTISSDNAKSTVYLQMNTLKPEDTAVYYCAVDRLGSQGRYASAWWRSGDMDLWGKGTQVTVSS
10 | 0.056 nM | 0.05 nM | 0.9 fold | – | – | 6-MP01G05 VHH-hFc, monospecific bivalent (Fc fusion, IgG1 Fc LALA-PG; not shown: human IgG1 CH2 and CH3 domains (Fc)) QVQLQESGGGLVQAGGSLRLSCAASGRTFSSYAMGWFRQAPGKEREFVAVISWNVDNTEYTDSVKGRFTISRDNDKNMVYLQMNSLKPEDTAVYYCAADSIPLSSDMSPTATEYGYWGQGTQVTVSS
11 | – | – | – | 0.0206 s⁻¹ | 1.79 OD450 nm | 6-MP01G05 VHH (periplasmic extract) (VHH, soluble VHH in periplasmic extract) VHH: QVQLQESGGGLVQAGGSLRLSCAASGRTFSSYAMGWFRQAPGKEREFVAVISWNVDNTEYTDSVKGRFTISRDNDKNMVYLQMNSLKPEDTAVYYCAADSIPLSSDMSPTATEYGYWGQGTQVTVSS

The next lines start with the binder.

Row | Binder | EC50 [1] | EC50 [2] | Fold change [3] | koff [4] | OD450 nm [5]
12 | 5-MP01F05 VHH-hFc, monospecific bivalent (Fc fusion, IgG1 Fc LALA-PG; not shown: human IgG1 CH2 and CH3 domains (Fc)) EVQLVESGGGLVQAGGSLRLSCAASIRAFTTWSMAWFRQAPGKEREYVARINVSGSVTYYADFVKGRFTISRDNAKKTMYLEMNNLKPEDTALYYCAADRTGVGTNDYNYWGQGTQVTVSS | 0.06 nM | 0.095 nM | 1.6 fold | – | –
13 | 2-MP01A02 VHH-hFc, monospecific bivalent (Fc fusion, IgG1 Fc LALA-PG; also called anti-IL-2Rα Ab 2; not shown: human IgG1 CH2 and CH3 domains (Fc)) QVQLVESGGGLVQPGGSLRLSCATSGFTFRNNFMSWVRQAPGKGLEWVSTISYGGESTTYAESVKGRFTISRDNAKNTLYLQMNNLKPEDTAVYYCAKATSYDSIRSGSRGQGTQVTVSS | 0.038 nM | 0.043 nM | 1.1 fold | – | –
14 | 2-MP01A02 VHH (periplasmic extract) (VHH, soluble VHH in periplasmic extract) VHH: QVQLVESGGGLVQPGGSLRLSCATSGFTFRNNFMSWVRQAPGKGLEWVSTISYGGESTTYAESVKGRFTISRDNAKNTLYLQMNNLKPEDTAVYYCAKATSYDSIRSGSRGQGTQVTVSS | – | – | – | 0.00153 s⁻¹ | 2.62 OD450 nm
15 | 8-MP01C12 VHH-hFc, monospecific bivalent (Fc fusion, IgG1 Fc LALA-PG; also called anti-IL-2Rα Ab 8; anti-IL-2Rα VHH 8; not shown: human IgG1 CH2 and CH3 domains (Fc)) QVQLVESGGGLVQPGGSLRLSCATSGFTFSNNFMSWVRQAPGKGLEFVSTISYGGESTTYAEAVKGRFTISRDNAKNTLYLQMNNLKPEDTAIYYCAKATSYTSIRGAPRGQGTQVTVSS | 0.051 nM | 0.054 nM | 1.1 fold | – | –
16 | 12-MP05B12 VHH-hFc, monospecific bivalent (Fc fusion, IgG1 Fc LALA-PG; not shown: human IgG1 CH2 and CH3 domains (Fc)) QVQLVESGGGLVQAGGSLRLSCAASGFTFDGYAIGWFRQAPGKEREGVSYITGSDGSTYYADSVKGRFTISSNNAKNTVYLHMNSLKPDDAAVYYCAIDRLGSRGAYVPIWWRSSDMDLWGKGTLVTVSS | 0.074 nM | 0.084 nM | 1.1 fold | – | –
17 | 4-MP01F04 VHH-hFc, monospecific bivalent (Fc fusion, IgG1 Fc LALA-PG; not shown: human IgG1 CH2 and CH3 domains (Fc)) QVQLVESGGGLVQAGGSLRLSCAASGGTFRTRNMGWFRRAPGKEREFVAAVSWNVDNKLYADSVKGRFTISRDNGRNMVYLQMNSLKPEDTAVYYCAADNIPLSSDMRPTATEYDYWGQGTQVTVSS | 0.053 nM | 0.056 nM | 1.1 fold | – | –
18 | 10-MP05F03 VHH-hFc, monospecific bivalent (Fc fusion, IgG1 Fc LALA-PG; also called anti-IL-2Rα Ab 10; anti-IL-2Rα VHH 10; not shown: human IgG1 CH2 and CH3 domains (Fc)) QVQLVESGGGLVQAGGSLRLSCAASGIPFDNYAMGWFRQAPGKEREFVAARDLEGIITRYGDSVKGRFTISRGNAKNTVFLQMNSLKPEDTAVYYCAARDGGVVAGSRSSAQYNYWGQGTQVTVSS | 0.061 nM | 0.06 nM | 1 fold | – | –
19 | 9-MP05G01 VHH-hFc, monospecific bivalent (Fc fusion, IgG1 Fc LALA-PG; not shown: human IgG1 CH2 and CH3 domains (Fc)) EVQLVESGGGLVQAGGSLRLSCAASGGSIYTYNMGWFRQAPGKEREFVAGTLWSGGDSVYADFAKGRFTLSRENAKNTLYLQMNSLKPEDTATYYCAIDPLSLTSDWRVDELSSWGKGTLVTVSS | 0.065 nM | 0.062 nM | 1 fold | – | –
